According to article PMC5444442, “Flagellin peptide flg22 gains access to long-distance trafficking in Arabidopsis via its receptor, FLS2” (Journal of Experimental Botany, 2017):
Peptide text beside a SMILES is read from it. * marks the point of attachment. 5TAMRA = CN(C)c1ccc2c(c1)Oc1cc(N(C)C)ccc1C21OC(=O)c2cc(C(=O)*)ccc21; 5FAM = O=C1OC2(c3ccc(O)cc3Oc3cc(O)ccc32)c2ccc(C(=O)*)cc21; Cbz = O=C(OCc1ccccc1)*

Experiments:
Arabidopsis plants [1] = test: Long-distance transport to distal tissues after infiltration of fluorescent peptide; type: in vivo, Arabidopsis thaliana; conditions: for detection within cells in distal part of infiltrated leaf: 10 μM infiltrated, 2 h, confocal microscopy
Description: A 5–10 μM water solution of FAM–flg22 was pressure infiltrated with a 1 ml blunt syringe into a part or all of one leaf of 4-week-old soil-grown plants and distal tissues were examined by epifluorescence and confocal microscopy after 2 and 16 h, respectively. FAM–Y-flg22 was used in some experiments with similar results.
(§1) [^14C]sucrose radioactivity was quantified in a scintillation counter.

Arabidopsis leaf discs = test: Subcellular localization, uptake and accumulation of flg22 in leaf discs; type: cell-based, Arabidopsis thaliana; conditions: for number of foci overlapping with FM4-64 / total number of green (Ff22) fluorescent foci: 18 picture areas (20 μm × 20 μm); for non-specific uptake in presence of active flg22: Col leaf discs floated overnight on 2 μM FAM–scrambled peptide or 2 μM fluorescein mixed with 1 μM TAMRA–flg22 or 2 μM flg22, n≥8; for initial (up to 1.5 h) uptake/binding: leaf discs floated on 5 μM peptide, confocal fluorescence
Description: Leaf discs were floated (abaxial side down) on 1–5 μM TAMRA–flg22 or 5–10 μM FAM–flg22 solution (in water) at room temperature for the indicated time (lower concentrations were used for overnight treatments). Inhibitors that affect endocytosis, MG132 (Sigma-Aldrich, 50 μM) or 2,3-butanedione monoxime (BDM; Sigma-Aldrich, 50 mM) were added at the same time as the peptides. FM4-64 (Invitrogen, 6–8 μM) or 2′,7′-bis-(2-carboxyethyl)-5-(and-6)-carboxyfluorescein (BCECF)-AM (cleaved by an endogenous plant esterase to BCECF, Invitrogen, 20–40 μM) mixed with peptide solution was vacuum infiltrated for 2 min into leaf discs ([Kang et al., 2014]) prior to incubation (floating on peptide/dye solution) for the indicated time. In some experiments FAM–Y-flg22 was used with results similar to FAM–flg22.
For experiments with mixed peptides, leaf discs were floated for the indicated time on 2 μM FAM–flg22, FAM–scrambled peptide or fluorescein mixed with 1 μM TAMRA–flg22. In all experiments, leaf discs were washed after treatment by gently shaking for several minutes in water and the abaxial side was imaged by confocal or epifluorescence microscopy (see ‘Microscopy’). Fluorescence intensity profiles were generated with ImageJ, as in [Spallek et al., (2013)] and [Bozkurt et al. (2015)] (see ‘Data analysis’).
Confocal images were obtained using a Zeiss LSM710 laser-scanning confocal microscope (Zeiss, Germany) as described in [Kang et al. (2014)]. Fluorescence was visualized as follows: GFP/FAM/fluorescein/BCECF excitation (ex) 488 nm/emission (em) 495–545 nm; TAMRA ex 561 nm/em 566–620 nm; FM4-64: ex 561 nm/em 686–758 nm. Green and red fluorescence was acquired for the same field using a sequential acquisition mode.
Fluorescence intensity profiles were generated with ImageJ (http://rsb.info.nih.gov/ij, last accessed 6 April 2017) using RGB Profiler and Color Profiler. Fluorescent puncta were manually counted in 20 μm × 20 μm confocal image areas as in [Irani et al. (2012)] and [Chaparro-Garcia et al., (2015)] and shown as a fraction ([Irani et al., 2012]; [Choi et al., 2013]). […]

[2] = test system: detached Arabidopsis leaf; test: Movement across a leaf blade; conditions: 1 h, epifluorescence
Description: A 5 μl drop of water solution of 10 μM FAM–flg22 or FAM–scrambled peptide was placed on the abaxial side of a detached Arabidopsis leaf in a humid chamber. […] Excess peptide was removed after 0.5 h, leaf surface was washed with water and epifluorescence images of the adaxial side were taken during the next 30 min (0.5–1 h after treatment).
The amount of peptide in plant cells was measured as total fluorescence per view field (integrated density) as in [Martins et al. (2015)], and was quantified with ImageJ in each channel in confocal and epifluorescence images. To allow comparison between experiments, fluorescence was calculated as a percentage of the signal in Col treated with TAMRA–flg22 or FAM–flg22. ^125I radioactivity in local and distal tissues was quantified from autoradiographs using a Cyclone Phosphorimager (Perkin Elmer) or in a scintillation counter (Packard Quantum Cobra D5002) and shown as percentage of total radioactivity in a plant. [^14C]sucrose radioactivity was quantified in a scintillation counter. Data from multiple experiments were analysed together using Prism software (GraphPad) (one-way ANOVA followed by Tukey’s test, or the t-test).

Arabidopsis plants [3] = test: Long-distance transport after surface application of fluorescent peptide; type: in vivo, Arabidopsis thaliana; conditions: 1 d
Description: We applied 10–20 μl of 5 μM TAMRA–flg22 (without or with inhibitors: 50 μM MG132 or 50 mM BDM) to a filter paper disc placed on the adaxial side of one leaf of in vitro-grown Arabidopsis plants and distal tissues were imaged by confocal microscopy after 1 d. For experiments with mixed peptides, 5 μM TAMRA–flg22 + 10 μM FAM–scrambled peptides were used.
as §1

Arabidopsis plants [4] = test: Long-distance transport after surface application of radiolabeled peptide; type: in vivo, Arabidopsis thaliana; conditions: control; 1 μl droplet of Na125I (1 × 10^6 cpm) on abaxial side of one leaf; 3 h; five plants, three experiments, P=0.7
Description: We applied 0.5–1 µM (specific activity 17 µCi µg^–1) ^125I-Y-flg22 or ^125I-Y-scrambled peptide in 10 mM MES pH 5.7 with 0.01% Tween-20 as a 1 µl droplet to the abaxial side of one mature leaf of 4-week-old soil-grown Arabidopsis plants and incubated for 3 h. For the control, 1 µl of 1.8 µM Na^125I (2.2 µCi µg^–1) in 5 mM NaOH–0.5 mM NaHSO2 (to prevent volatilization) with 0.005% Tween-20 was applied in the same way. Whole plants were sealed in plastic (Pinnacle Cover-All, Total Care), additionally contained in a plastic bag, and exposed for 5 d to phosphor screens for autoradiography.
as §1

[5] = Col leaf discs, 5–10 μM peptide with FM4-64 (6–8 μM), 1–2 h, confocal
[6] = fls2 leaf discs, 5–10 μM peptide with FM4-64, 1–2 h, confocal
[7] = Ws (lacks FLS2) leaf discs floated on 2 μM peptide 1–2 h, 16 picture areas (20 μm × 20 μm), confocal
[8] = Ws/FLS2–GFP leaf discs floated on 2 μM peptide 1–2 h, 16 picture areas (20 μm × 20 μm), confocal

CC[C@H](C)[C@H](NC(=O)[C@H](CCC(N)=O)NC(=O)[C@H](CC(C)C)NC(=O)CNC(=O)[C@H](C)NC(=O)[C@H](C)NC(=O)[C@H](CC(=O)O)NC(=O)[C@H](CC(=O)O)NC(=O)[C@H](CCCCN)NC(=O)[C@H](C)NC(=O)[C@H](CO)NC(=O)[C@H](CC(N)=O)NC(=O)[C@@H](NC(=O)[C@H](CCCNC(=N)N)NC(=O)[C@H](CO)NC(=O)CNC(=O)[C@@H](NC(=O)[C@H](CO)NC(=O)[C@H](CC(C)C)NC(=O)[C@H](CCCNC(=N)N)NC(=O)[C@H](CCC(N)=O)NC(=O)c1ccc2c(c1)C(=O)OC21c2ccc(O)cc2Oc2cc(O)ccc21)[C@@H](C)O)[C@@H](C)CC)C(=O)N[C@@H](C)C(=O)O [FAM–flg22] (5FAM-QRLSTGSRINSAKDDAAGLQIA-OH)
detection within cells in distal part of infiltrated leaf (Arabidopsis plants [1]; Col): present within vascular cells
detection in distal orthostichous leaves (Arabidopsis plants [1]; Col, 5–10 μM infiltrated into part of one leaf of soil-grown plants, 16 h, epifluorescence): detected
detection within cells in distal part of infiltrated leaf (Arabidopsis plants [1]; fls2): not detected within cells
detection in distal leaves (Arabidopsis plants [1]; fls2, 5–10 μM infiltrated into one leaf, 16 h, epifluorescence): not observed
number of foci overlapping with FM4-64 (Arabidopsis leaf discs; [5]): 212
total number of green (Ff22) fluorescent foci (Arabidopsis leaf discs; [5]): 217
co-localization with endocytic dye FM4-64 (Arabidopsis leaf discs; Col leaves, 5–10 μM peptide, 1–2 h incubation, confocal): co-localized with a subset of vesicles and MVBs
number of foci overlapping with FM4-64 (Arabidopsis leaf discs; [6]): 2
total number of green (Ff22) fluorescent foci (Arabidopsis leaf discs; [6]): 10
signal in cells (Arabidopsis leaf discs; fls2 mutant, 5–10 μM peptide, 1–2 h incubation, confocal): not visible
detection on adaxial side of leaf after application to abaxial side ([2]; Col detached leaf, 5 μl drop of 10 μM peptide, three experiments, n≥5): detected
mobility across a leaf blade ([2]; fls2 and bak1 mutants, 10 μM peptide drop): reduced

CC[C@H](C)[C@H](NC(=O)CNC(=O)c1ccc2c(c1)C(=O)OC21c2ccc(O)cc2Oc2cc(O)ccc21)C(=O)N[C@H](C(=O)N[C@@H](C)C(=O)N[C@@H](CO)C(=O)N[C@@H](CCCCN)C(=O)N[C@@H](C)C(=O)N[C@@H](CC(C)C)C(=O)NCC(=O)N[C@@H](C)C(=O)N[C@@H](CC(=O)O)C(=O)N[C@@H](CC(C)C)C(=O)N[C@@H](CCCNC(=N)N)C(=O)N[C@@H](CCCNC(=N)N)C(=O)N[C@H](C(=O)N[C@@H](CC(N)=O)C(=O)N[C@@H](CCC(N)=O)C(=O)N[C@@H](CO)C(=O)N[C@@H](C)C(=O)N[C@@H](CO)C(=O)N[C@@H](CCC(N)=O)C(=O)N[C@@H](CC(=O)O)C(=O)O)[C@@H](C)CC)[C@@H](C)O [FAM–scrambled peptide] (5FAM-GITASKALGADLRRINQSASQD-OH)
detection within cells in distal part of infiltrated leaf (Arabidopsis plants [1]; Col): not detected within cells
non-specific uptake in presence of active flg22 (Arabidopsis leaf discs; confocal): not observed

CC(C)C[C@@H](C=O)NC(=O)[C@H](CC(C)C)NC(=O)[C@H](CC(C)C)NC(=O)OCc1ccccc1 [MG132, reference compound] (Cbz-Leu-Leu-Leu-aldehyde)
effect of inhibitor on initial binding/uptake of TAMRA–flg22 (Arabidopsis leaf discs; Col leaf discs, 5 μM TAMRA–flg22 with 50 μM MG132 or 50 mM BDM added simultaneously, 1–2 h): did not prevent initial peptide binding/uptake
effect of inhibitor on overnight accumulation of TAMRA–flg22 in vacuoles (Arabidopsis leaf discs; Col leaf discs, 1–2 μM TAMRA–flg22 with 50 μM MG132 or 50 mM BDM, overnight): did not accumulate in vacuoles
effect of inhibitor on long-distance movement of TAMRA–flg22 (Arabidopsis plants [3]; Col, 5 μM TAMRA–flg22 with 50 μM MG132 or 50 mM BDM on filter paper disc): prevented

[125I-].[Na+] [Na^125I]
movement to distal leaves, Col versus fls2 (Arabidopsis plants [4]): the same in Col and fls2

CC[C@H](C)[C@H](NC(=O)[C@H](CCC(N)=O)NC(=O)[C@H](CC(C)C)NC(=O)CNC(=O)[C@H](C)NC(=O)[C@H](C)NC(=O)[C@H](CC(=O)O)NC(=O)[C@H](CC(=O)O)NC(=O)[C@H](CCCCN)NC(=O)[C@H](C)NC(=O)[C@H](CO)NC(=O)[C@H](CC(N)=O)NC(=O)[C@@H](NC(=O)[C@H](CCCNC(=N)N)NC(=O)[C@H](CO)NC(=O)CNC(=O)[C@@H](NC(=O)[C@H](CO)NC(=O)[C@H](CC(C)C)NC(=O)[C@H](CCCNC(=N)N)NC(=O)[C@H](CCC(N)=O)NC(=O)c1ccc2c(c1)C(=O)OC21c2ccc(N(C)C)cc2Oc2cc(N(C)C)ccc21)[C@@H](C)O)[C@@H](C)CC)C(=O)N[C@@H](C)C(=O)O [TAMRA–flg22] (5TAMRA-QRLSTGSRINSAKDDAAGLQIA-OH)
overnight accumulation in plant cells (Arabidopsis leaf discs; Col leaf discs, 1 μM peptide with vacuolar dye BCECF (20 μM), overnight, confocal): accumulated in central vacuoles
number of overlapping red and green foci (Arabidopsis leaf discs; [7]): 0
total number of red (Tf22) fluorescent foci (Arabidopsis leaf discs; [7]): 5
number of foci overlapping with FLS2–GFP (Arabidopsis leaf discs; [8]): 143
total number of red (Tf22) fluorescent foci (Arabidopsis leaf discs; [8]): 161
internalization into vesicles (Arabidopsis leaf discs; Ws/FLS2–GFP leaf discs, 2 μM peptide, 1–2 h, confocal): found together in vesicles
initial (up to 1.5 h) uptake/binding (Arabidopsis leaf discs; bak1 versus Col): not highly affected
overnight accumulation in plant cells (Arabidopsis leaf discs; fls2 and bak1 versus Col, leaf discs floated on 1–2 μM peptide overnight, confocal, P<0.0002, n≥7): inhibited
initial (up to 1.5 h) uptake/binding (Arabidopsis leaf discs; fls2 versus Col, P<0.05, n≥6): reduced
fluorescence signal inside cells (Arabidopsis leaf discs; non-transgenic wild-type Ws control or Col fls2, 1–2 h, confocal): No fluorescence signal was observed inside the cells
detection in local (treated) tissue (Arabidopsis plants [3]; Col, 5 μM on filter paper disc on adaxial side of one leaf of in vitro-grown plants, confocal): detected preferentially in the vascular region
detection in distal leaves and flowers (Arabidopsis plants [3]; Col, 5 μM on filter paper disc on one leaf of in vitro-grown plants, confocal): detected
movement to distal organs from mixture of peptides (Arabidopsis plants [3]; WT Col, 5 μM TAMRA–flg22 + 10 μM FAM–scrambled peptide on filter paper disc, confocal, n=6): moved, to a significant extent

O=C1OC2(c3ccc(O)cc3Oc3cc(O)ccc32)c2ccccc21 [fluorescein, reference compound]
non-specific uptake in presence of active flg22 (Arabidopsis leaf discs; confocal): did not induce uptake
